Assay results as given in the supplement of paper PMC10201428.
± gives the standard deviation of the averaged measurements.

Legend:
[1] = test system: VchCAST RNA-guided transposition machinery (E. coli BL21(DE3) host, lacZ target); test: relative integration efficiency (T-RL orientation) vs wild-type transposon end (log2 (normalized fold change)); transposon end mutated: right end (5 bp flank + 75 bp right end); higher = more efficient transposition
Method in brief: (§1)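 Barcoded pools of 1549 left-end or 1849 right-end transposon variants were cloned into a pUC57 mini-transposon donor. Each pool was co-transformed with a T7-driven effector plasmid (CRISPR array, tniQ-cas8-cas7-cas6, tnsA-tnsB-tnsC) into E. coli BL21(DE3) and plated with 0.1 mM IPTG at 37°C for 18 h. Input plasmids and genomic integration junctions were PCR-amplified and Illumina-sequenced, with two biological output replicates and four wild-type barcodes as reference. Relative integration efficiency is output/input barcode abundance fold change, normalised to wild-type barcodes and log-transformed.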

[2] = test system: VchCAST RNA-guided transposition machinery (E. coli BL21(DE3) host, lacZ target); test: relative integration efficiency (T-LR orientation) vs wild-type transposon end (log2 (normalized fold change)); transposon end mutated: right end (5 bp flank + 75 bp right end); higher = more efficient transposition
Method in brief: as §1

| Sequence | relative integration efficiency (log2) [1] | relative integration efficiency (log2) [2] |
| --- | --- | --- |
| ACATTTGTTGATACAACCATAAAATCATCATTACCCCCATCAATTGATAATTATCCCACCCCATTTAACTATAACGCTCTGATCATAGTCAGACCAACATTGCTACGACCCGTATTCGCACCGACAC | -5.09 ± 0.14 | -1.6 ± 0.036 |
| ACATTTGTTGATACAACCATAAAATCATCATTCACCCATAAATTGATAATTATCACACCCACATTTAACTATAACGCTCTGATCATAGTCAGACCAACATTGCTACGACCCGTATTCGCACCGACAC | -5.68 ± 0.095 | -1.73 ± 0.67 |
| ACATTTGTTGATACAACCATAAAATCATCATTCACCCCTAAATTGATAATTATCACACCCACATTTAACTATAACGCTCTGATCATAGTCAGACCAACATTGCTACGACCCGTATTCGCACCGACAC | -5.66 ± 0.14 | -1.37 ± 0.066 |
| ACATTTGTTGATACAACCATAAAATCATTATTACACCCATTAATTGATAATTATCACACCCAATTTAACTATAACGCTCTGATCATAGTCAGACCAACATTGCTACGACCCGTATTCGCACCGACAC | -3.73 ± 0.33 | 0.129 ± 0.18 |
| ACATTTGTTGATACAACCATAAAATCTATATTACACCCATAAATTGATAATTATCACACCCATAAATTGATATTGCCTCTGATCATAGTCAGACCAACATTGCTACGACCCGTATTCGCACCGACAC | -1.55 ± 0.21 | -1.85 ± 0.057 |
| ACATTTGTTGATACAACCATAAAATCTTAATTACACCCATAAATTGATAATTATCACACCCATAAATTGATATTGCCTCTGATCATAGTCAGACCAACATTGCTACGACCCGTATTCGCACCGACAC | -1.973 ± 0.011 | -1.09 ± 0.22 |
| ACATTTGTTGATACAACCATAAAATGAAAATTACACCCATAAATTGAAAATTATCACACCCATAAATTGAAATTGCCTCTGATCATAGTCAGACCAACATTGCTACGACCCGTATTCGCACCGACAC | -1.13 ± 0.26 | 0.0682 ± 0.25 |
| ACATTTGTTGATACAACCATAAAATGAATATTACACCCATAAATTGATAATTATCACACCCATAAATTGATATTGCCTCTGATCATAGTCAGACCAACATTGCTACGACCCGTATTCGCACCGACAC | -0.772 ± 0.072 | -0.52 ± 0.4 |
| ACATTTGTTGATACAACCATAAAATGAATTAATCACCCATAAATTGAATTAATTCACACCCATAAATTGAATAACGCTCTGATCATAGTCAGACCAACATTGCTACGACCCGTATTCGCACCGACAC | -2.34 ± 0.14 | -1.25 ± 0.054 |
| ACATTTGTTGATACAACCATAAAATGAATTATACACCCATAAATTGATAATTATCACACCCATAAATTGATATTGCCTCTGATCATAGTCAGACCAACATTGCTACGACCCGTATTCGCACCGACAC | -0.7 ± 0.18 | -0.0536 ± 0.3 |
| ACATTTGTTGATACAACCATAAAATGAGAATTACACCCATAAATTGAGAATTATCACACCCATAAATTGAGATTGCCTCTGATCATAGTCAGACCAACATTGCTACGACCCGTATTCGCACCGACAC | -1.04 ± 0.13 | -0.085 ± 0.14 |
| ACATTTGTTGATACAACCATAAAATGAGCATTACACCCATAAATTGATAATTATCACACCCATAAATTGATATTGCCTCTGATCATAGTCAGACCAACATTGCTACGACCCGTATTCGCACCGACAC | -0.394 ± 0.049 | -0.621 ± 0.017 |
| ACATTTGTTGATACAACCATAAAATGAGCCGGCACAAACGCCCGGTCGCCGGCGACACAAACGCCCGGTCGCGGTAAGAGGATCATAGTCAGACCAACATTGCTACGACCCGTATTCGCACCGACAC | -3.42 ± 0.22 | -0.24 ± 0.25 |
| ACATTTGTTGATACAACCATAAAATGAGCCGGCCACCCATAAATTGAGCCGGCTCACACCCATAAATTGAGCGGTACTCTGATCATAGTCAGACCAACATTGCTACGACCCGTATTCGCACCGACAC | -4.23 ± 0.084 | -1.65 ± 0.23 |
| ACATTTGTTGATACAACCATAAAATGAGCCGTACACCCATAAATTGATAATTATCACACCCATAAATTGATATTGCCTCTGATCATAGTCAGACCAACATTGCTACGACCCGTATTCGCACCGACAC | -0.359 ± 0.21 | -0.26 ± 0.5 |
| ACATTTGTTGATACAACCATAAAATGATAAAAACACCCATAAATTGATAATTATCACACCCATAAATTGATATTGCCTCTGATCATAGTCAGACCAACATTGCTACGACCCGTATTCGCACCGACAC | -0.347 ± 0.089 | -0.253 ± 0.4 |
| ACATTTGTTGATACAACCATAAAATGATAAAATCACCCATAAATTGATAAAATTCACACCCATAAATTGATATACGCTCTGATCATAGTCAGACCAACATTGCTACGACCCGTATTCGCACCGACAC | -1.05 ± 0.087 | -0.368 ± 0.21 |
| ACATTTGTTGATACAACCATAAAATGATAAAATGACCCATAAATTGATAATTATCACACCCATAAATTGATATTGCCTCTGATCATAGTCAGACCAACATTGCTACGACCCGTATTCGCACCGACAC | -0.49 ± 0.13 | 0.143 ± 0.81 |
| ACATTTGTTGATACAACCATAAAATGATAAATACACCCATAAATTGATAAATATCACACCCATAAATTGATATAGCCTCTGATCATAGTCAGACCAACATTGCTACGACCCGTATTCGCACCGACAC | -0.443 ± 0.15 | 0.037 ± 0.84 |
| ACATTTGTTGATACAACCATAAAATGATAAATACACCCATAAATTGATAATAATGACACCGAATTTAACTATAACGCTCTGATCATAGTCAGACCAACATTGCTACGACCCGTATTCGCACCGACAC | -1.36 ± 0.43 | 2.26 ± 0.23 |
| ACATTTGTTGATACAACCATAAAATGATAAATACACCCATAAATTGATAATGATGACACCGAATTTAACTATAACGCTCTGATCATAGTCAGACCAACATTGCTACGACCCGTATTCGCACCGACAC | -0.862 ± 0.42 | 2.71 ± 0.18 |
| ACATTTGTTGATACAACCATAAAATGATAAATACACCCATAAATTGATAATTGTGACACCGAATTTAACTATAACGCTCTGATCATAGTCAGACCAACATTGCTACGACCCGTATTCGCACCGACAC | -0.896 ± 0.3 | 2.56 ± 0.14 |
| ACATTTGTTGATACAACCATAAAATGATAACACCCATAAATTGATAATTATCACACCCATAAATTGATATTGCCTCTGATCATAGTCAGACCAACATTGCTACGACCCGTATTCGCACCGACACTGA | -3.99 ± 0.2 | -1.25 ± 0.2 |
| ACATTTGTTGATACAACCATAAAATGATAAGGACACCCATAAATTGATAATTATCACACCCATAAATTGATATTGCCTCTGATCATAGTCAGACCAACATTGCTACGACCCGTATTCGCACCGACAC | -0.956 ± 0.034 | -0.358 ± 0.15 |
| ACATTTGTTGATACAACCATAAAATGATAAGGCAACCCATAAATTGATAATTATCACACCCATAAATTGATATTGCCTCTGATCATAGTCAGACCAACATTGCTACGACCCGTATTCGCACCGACAC | -0.5904 ± 0.00039 | -0.414 ± 0.36 |
| ACATTTGTTGATACAACCATAAAATGATAAGGCACAAACGCCCGGTCGCCGGCGACACAAACGCCCGGTCGCGGTAAGAGGATCATAGTCAGACCAACATTGCTACGACCCGTATTCGCACCGACAC | -2.28 ± 0.27 | 1.225 ± 0.01 |
| ACATTTGTTGATACAACCATAAAATGATAAGGCCACCCATAAATTGATAAGGCTCACACCCATAAATTGATATGTACTCTGATCATAGTCAGACCAACATTGCTACGACCCGTATTCGCACCGACAC | -1.42 ± 0.28 | -0.158 ± 0.46 |
